Measurements reported in article PMC11187625, “New Labeled PET Analogues Enable the Functional Screening and Characterization of PET-Degrading Enzymes” (ACS Sustainable Chemistry & Engineering, 2024).

Tests used:
Test in all cases: fluorescence, 4-mU release
Type in all cases: biochemical, Moraxella sp. TA144
Conditions in all cases: 0.1 M phosphate pH 7, 30 °C, 5% DMSO
[1] = test system: CCOCCOC(=O)c1ccc(C(=O)Oc2ccc3c(C)cc(=O)oc3c2)cc1
From the text: (§1) fluorescence, 4-mU release on MoPE (polyesterase)

[2] = test system: COC(=O)c1ccc(C(=O)OCCOC(=O)c2ccc(C(=O)Oc3ccc4c(C)cc(=O)oc4c3)cc2)cc1
From the text: as §1

[3] = test system: COC(=O)c1ccc(C(=O)Oc2ccc3c(C)cc(=O)oc3c2)cc1
From the text: as §1

Substance: MoPE (polyesterase) (Moraxella sp. TA144)
- Km [1]: 15.6 ± 1.5 µM
- kcat [1]: 0.00014 ± 1e-06 s⁻¹
- Km [2]: 17.4 ± 2.1 µM
- Km [3]: 1.9 ± 0.1 µM
- kcat [3]: 3e-05 ± 1e-06 s⁻¹
